1 substance from PMC3478719 can be followed below.

The assay has as its target SIF binding receptor from human spermatozoa (human (endogenous in spermatozoa)). In words: ITC; microreaction calorimeter, titration mode; 1.5 mL receptor (200 μg mL^-1) in the vial, ligand (500 μg mL^-1) in a 250 μL syringe; PBS.

For the substance “Sperm immobilization factor (SIF) from Staphylococcus aureus (natural protein)”, the Ka stood at 1350 M⁻¹; the dH was -2.84 kcal/mol; the heat released (ligand 7.5 × 10^-4 μM, receptor 4.8 × 10^-3 μM) stood at 9.7 mJ; the heat released (ligand 15.0 × 10^-4 μM, receptor 4.8 × 10^-3 μM) was 9 mJ. In addition, the heat released (ligand 22.5 × 10^-4 μM, receptor 4.8 × 10^-3 μM) is 8.6 mJ; the heat released (ligand 30.0 × 10^-4 μM, receptor 4.8 × 10^-3 μM) came to 5.6 mJ; the heat released (ligand 37.5 × 10^-4 μM, receptor 4.8 × 10^-3 μM) stood at 2.3 mJ; the heat released (ligand 45.0 × 10^-4 μM, receptor 4.8 × 10^-3 μM) is 2.1 mJ. In addition, the heat released (ligand 52.5 × 10^-4 μM, receptor 4.8 × 10^-3 μM) stood at 2 mJ.
